Assay results from patent publication US11396668B2, “Methods of producing nor-opioid and nal-opioid benzylisoquinoline alkaloids” (priority 2016, dated 2022).

Columns and labels:
[1] = tested on: tyrosine hydroxylase activity (wild-type RnTyrH); experiment: L-DOPA and BH4 levels with antioxidant added to growth media of engineered yeast; format: cell-based; settings: 2 mM in the media
Source text: A yeast strain containing the following mutations to central metabolism (as described in U.S. Provisional Patent Application Ser. No. 61/899,496): ARO4^FBR, ΔZWF1, and GPD-TKL1 promoter replacement and expressing four chromosomally integrated genes from R. norvegicus that generate the cosubstrate tetrahydrobiopterin (pyruvoyl tetrahydropterin synthase, PTPS; sepiapterin reductase, SepR; pterin 4a-carbinolamine dehydratase, PCD; dihydropteridine reductase, QDHPR) as well as wild-type RnTyrH from a low-copy plasmid under the control of the GPD promoter was grown in selective defined media (YNB) lacking tyrosine with 2% galactose and 2 mM ascorbic acid for 96 hours.
The production of L-DOPA was measured in the media via LC-MS/MS in MRM mode with the transition 198 m/z to 152 m/z. […] In addition, the concentration BH4 intermediates were measured with LC-MS/MS in MRM mode with the following transitions: B, 238 m/z to 178 m/z; BH2, 240 m/z to 165 m/z and BH4, 242 m/z to 166 m/z.
Accordingly, FIG. 11A illustrates addition of antioxidants to culture media that improves L-DOPA production by tyrosine hydroxylase in engineered yeast strains and (B) addition of antioxidants to culture media that increase BH4 levels, in accordance with embodiments of the invention. […] The production of L-DOPA was measured in the media via LC-MS/MS in MRM mode with the transition 198 m/z to 152 m/z. […]

[2] = tested on: L-DOPA production by tyrosine hydroxylase; experiment: L-DOPA production with DHFR coexpressed with wild-type RnTyrH in engineered yeast; format: cell-based; settings: YNB lacking tyrosine, 2% dextrose, 96 hours
Source text: Dihydrofolate reductase (DHFR) from R. norvegicus was yeast codon optimized, synthesized, and cloned into a low-copy plasmid under the control of a GPD promoter. DHFR was coexpressed with wild-type RnTyrH (low-copy plasmid with a GPD promoter) in a yeast strain containing the following mutations to central metabolism (as described in U.S. Provisional Patent Application Ser. No. 61/899,496): ARO4^FBR, ΔZWF1, and GPD-TKL1 promoter replacement. In addition, the strain expressed four chromosomally integrated genes from R. norvegicus that generate the cosubstrate tetrahydrobiopterin (pyruvoyl tetrahydropterin synthase, PTPS; sepiapterin reductase, SepR; pterin 4a-carbinolamine dehydratase, PCD; dihydropteridine reductase, QDHPR). The strains expressing DHFR and wild-type RnTyrH were grown in selective defined media (YNB) lacking tyrosine with 2% dextrose for 96 hours, and the production of L-DOPA was measured in the media via LC-MS/MS in MRM mode with the transition 198 m/z to 152 m/z. Expression of DHFR with wild-type RnTyrH increases L-DOPA production by 1.8-fold, as illustrated in FIG. 10. As such, FIG. 10 illustrates coexpression of dihydrofolate reductase (DHFR) that improves L-DOPA production by tyrosine hydroxylase in engineered yeast strains, in accordance with embodiments of the invention.

thebaine = experiment: Thebaine N-demethylase activity of BM3 variants in yeast; format: cell-based, yeast strains (CEN.PK2); settings: 100 μM thebaine, 20 hours, buffers pH 5.0-8.5
Protocol: (§1) Specifically, BM3 variants 4H9, 7A1, and 8F11 (listed in Table 6) were integrated into the genomes of individual yeast strains (CEN.PK2) and incubated in citric acid-phosphate buffer (pH 5.0, 6.0, 7.0) and Tris-HCl buffer (pH 7.5, 8.0, 8.5) with 100 μM thebaine for 20 hours. A genetic construct which was identical except for the exclusion of the BM3 open reading frame was integrated to generate a no-enzyme control strain. […] The northebaine generated by the yeast strains was quantified by liquid chromatography mass spectrometry. The mass spectrum of northebaine (m/z 298) lacked the m/z 58 product ion consistent with a demethylated nitrogen (see FIG. 27C).
as §1, with “FIG. 27A, FIG. 27B and FIG. 27C illustrate the functional expression of BM3 variants, in accordance with embodiments of the invention. […] FIG. 27B illustrates the functional expression of BM3 variants with thebaine N-demethylase activity in yeast.” for “Specifically,”, “8F11” for “8F11 (listed in Table 6)”

Row | Molecule | northebaine production from thebaine (N-demethylation) (thebaine) | further results
1 | O=C1O[C@H]([C@@H](O)CO)C(O)=C1O [ascorbic acid] |  | improvement of L-DOPA production with wild-type RnTyrH ([1]; 96 hours): 1.8 fold; BH4 in the media ([1]; LC-MS/MS): increases BH4 in the media
2 | DHFR: Dihydrofolate reductase from R. norvegicus, yeast codon optimized, expressed from low-copy plasmid (protein, UniProt Q920D2 1-187, looked up) Dihydrofolate reductase: MVRPLNCIVAVSQNMGIGKNGDLPWPLLRNEFKYFQRMTTTSSVEGKQNLVIMGRKTWFSIPEKNRPLKDRINIVLSRELKEPPQGAHFLAKSLDDALKLIEQPELASKVDMVWVVGGSSVYQEAMNQPGHLRLFVTRIMQEFESDTFFPEIDLEKYKLLPEYPGVLSEIQEEKGIKYKFEVYEKKD |  | increase of L-DOPA production [2]: 1.8 fold
3 | 4H9: BM3 variant (Bacillus megaterium cytochrome P450) listed in Table 6 (protein) MTIKEMPQPKTFGELKNLPLLNTDKPVQALMKIADELGEIFKFEAPGRVTRYLSSQRLIKEACDESRFDKNLSQALKFARDFAGDGLVTSWTHEKNWKKAHNILLPSFSQQAMKGYHAMMVDIAVQLVQKWERLNADEHIEVSEDMTRLTLDTIGLCGFNYRFNSFYRDQPHPFIISMVRAADEVMNKLQRANPDDPAYDENKRQFQEDIKVMNDLVDKIIADRKARGEQSDDLLTQMLNGKDPETGEPLDDGNIRYQIIAFLIAGHETTSGLLSFALYFLVKNPHVLQKVAEEAARVLVDPVPSYKQVKQLKYVGMVLNEALRLWPTAPAFSLYAKEDTVLGGEYPLEKGDEVMVLIPQLHRDKTVWGDDVEEFRPERFENPSAIPQHAFKPFGNGQRACIGQQFALHEATLVLGMMLKHFDFEDHTNYELDIKETATLKPKGFVVKAKSKKIPLGGIPSPSTEQSAKKVRKKAENAHNTPLLVLYGSNMGTAEGTARDLADIAMSKGFAPQVATLDSHAGNLPREGAVLIVTASYNGHPPDNAKQFVDWLDQASADEVKGVRYSVFGCGDKNWATTYQKVPAFIDETLAAKGAENIADRGEADASDDFEGTYEEWREHMWSDVAAYFNLDIENSEDNKSTLSLQFVDSAADMPLAKMHGAFSTNVVASKELQQPGSARSTRHLEIELPKEASYQEGDHLGVIPRNYEGIVNRVTARFGLDASQQIRLEAEEEKLAHLPLAKTVSVEELLQYVELQDPVTRTQLRAMAAKTVCPPHKVELEALLEKQAYKEQVLAKRLTMLELLEKYPACEMKFSEFIALLPSIRPRYYSISSSPRVDEKQASITVSVVSGEAWSGYGEYKGIASNYLAELQEGDTITCFISTPQSEFTLPKDPETPLIMVGPGTGVAPFRGFVQARKQLKEQGQSLGEAHLYFGCRSPHEDYLYQEELENAQSEGIITLHTAFSRMPNQPKTYVQHVMEQDGKKLIELLDQGAHFYICGDGSQMAPAVEATLMKSYADVHQVSEADARLWLQQLEEKGRYAKDVWAG | produced northebaine at all tested pH levels above 7.0 | 
4 | 7A1: BM3 variant (Bacillus megaterium cytochrome P450) listed in Table 6 (protein) MTIKEMPQPKTFGELKNLPLLNTDKPVQALMKIADELGEIFKFEAPGRVTRYLSSQRLIKEACDESRFDKNLSQAAKFARDFAGDGLVTSWTHEKNWKKAHNILLPSFSQQAMKGYHAMMVDIAVQLVQKWERLNADEHIEVSEDMTRLTLDTIGLCGFNYRFNSFYRDQPHPFIISAVRAADEVMNKLQRANPDDPAYDENKRQFQEDIKVMNDLVDKIIADRKARGEQSDDLLTQMLNGKDPETGEPLDDGNIRYQIIAFLIAGHETTSGLLSFALYFLVKNPHVLQKVAEEAARVLVDPVPSYKQVKQLKYVGMVLNEALRLWPTAPAFSLYAKEDTVLGGEYPLEKGDEVMVLIPQLHRDKTVWGDDVEEFRPERFENPSAIPQHAFKPFGNGQRACIGQQFALHEATLVLGMMLKHFDFEDHTNYELDIKETLTLKPKGFVVKAKSKKIPLGGIPSPSTEQSAKKVRKKAENAHNTPLLVLYGSNMGTAEGTARDLADIAMSKGFAPQVATLDSHAGNLPREGAVLIVTASYNGHPPDNAKQFVDWLDQASADEVKGVRYSVFGCGDKNWATTYQKVPAFIDETLAAKGAENIADRGEADASDDFEGTYEEWREHMWSDVAAYFNLDIENSEDNKSTLSLQFVDSAADMPLAKMHGAFSTNVVASKELQQPGSARSTRHLEIELPKEASYQEGDHLGVIPRNYEGIVNRVTARFGLDASQQIRLEAEEEKLAHLPLAKTVSVEELLQYVELQDPVTRTQLRAMAAKTVCPPHKVELEALLEKQAYKEQVLAKRLTMLELLEKYPACEMKFSEFIALLPSIRPRYYSISSSPRVDEKQASITVSVVSGEAWSGYGEYKGIASNYLAELQEGDTITCFISTPQSEFTLPKDPETPLIMVGPGTGVAPFRGFVQARKQLKEQGQSLGEAHLYFGCRSPHEDYLYQEELENAQSEGIITLHTAFSRMPNQPKTYVQHVMEQDGKKLIELLDQGAHFYICGDGSQMAPAVEATLMKSYADVHQVSEADARLWLQQLEEKGRYAKDVWAG | produced northebaine at all tested pH levels above 7.0 | 
5 | 8F11: BM3 variant (Bacillus megaterium cytochrome P450) listed in Table 6 (protein) MTIKEMPQPKTFGELKNLPLLNTDKPVQALMKIADELGEIFKFEAPGRVTRYLSSQRLIKEACDESRFDKNLSQALKFARDFAGDGLVTSWTHEKNWKKAHNILLPSFSQQAMKGYHAMMVDIAVQLVQKWERLNADEHIEVSEDMTRLTLDTIGLCGFNYRFNSFYRDQPHPFIISMVRALDEVMNKLQRANPDDPAYDENKRQFQEDIKVMNDLVDKIIADRKARGEQSDDLLTQMLNGKDPETGEPLDDGNIRYQIITFLIAGHETTSGLLSFALYFLVKNPHVLQKVAEEAARVLVDPVPSYKQVKQLKYVGMVLNEALRLWPTAPAFSLYAKEDTVLGGEYPLEKGDEVMVLIPQLHRDKTVWGDDVEEFRPERFENPSAIPQHAFKPFGNGQRACIGQQFALHEATLVLGMMLKHFDFEDHTNYELDIKETATLKPKGFVVKAKSKKIPLGGIPSPSTEQSAKKVRKKAENAHNTPLLVLYGSNMGTAEGTARDLADIAMSKGFAPQVATLDSHAGNLPREGAVLIVTASYNGHPPDNAKQFVDWLDQASADEVKGVRYSVFGCGDKNWATTYQKVPAFIDETLAAKGAENIADRGEADASDDFEGTYEEWREHMWSDVAAYFNLDIENSEDNKSTLSLQFVDSAADMPLAKMHGAFSTNVVASKELQQPGSARSTRHLEIELPKEASYQEGDHLGVIPRNYEGIVNRVTARFGLDASQQIRLEAEEEKLAHLPLAKTVSVEELLQYVELQDPVTRTQLRAMAAKTVCPPHKVELEALLEKQAYKEQVLAKRLTMLELLEKYPACEMKFSEFIALLPSIRPRYYSISSSPRVDEKQASITVSVVSGEAWSGYGEYKGIASNYLAELQEGDTITCFISTPQSEFTLPKDPETPLIMVGPGTGVAPFRGFVQARKQLKEQGQSLGEAHLYFGCRSPHEDYLYQEELENAQSEGIITLHTAFSRMPNQPKTYVQHVMEQDGKKLIELLDQGAHFYICGDGSQMAPAVEATLMKSYADVHQVSEADARLWLQQLEEKGRYAKDVWAG | produced northebaine at all tested pH levels above 7.0 | 
